What all share (type): biochemical, human
Substrate in data set [1]: CCCCCOc1ccc2nc3ccc(=O)cc-3oc2c1
The data set is described as follows: Michaelis–Menten kinetics of oxidation to fluorescent 7-hydroxy metabolite by recombinant CYP1A1. Particulars: other: recombinant CYP1A1, 100 mM Tris-HCl pH 7.4, 37 °C, 95% confidence interval in brackets. As for the experimental part:
(§1) Baculovirus-insect cell-expressed human CYP1A1, CYP1A2, CYP1B1, CYP2A6, CYP2B6, CYP2C8, CYP2C9, CYP2C19, CYP2D6, CYP2E1, CYP3A4, CYP3A5, and CYP3A7 were purchased from BD Biosciences Discovery Labware (Woburn, MA, USA) and used according to the manufacturer’s instructions.
(§2) The kinetic assays were carried out in 100 μL volume containing 100 mM Tris-HCl buffer pH 7.4, 0–40 μM coumarin derivative or 0–10 μM 7-ethoxyresorufin, 1–25 nM recombinant CYP or 0–0.1 g/L microsomal protein, and 20% NADPH regenerating system. Incubations took place at 37 °C in 96-multiwell plates; the fluorescence was measured with a Victor[2] plate reader (PerkinElmer Life Sciences, Turku, Finland). The detailed conditions are described in the figures and tables. The reaction was started by adding NADPH, and fluorescence was measured at 2 min intervals for 40 min using excitation at 405 nm and emission at 460 nm for oxidation of coumarin derivatives[18] and excitation at 570 nm and emission at 615 nm for ethoxyresorufin or pentoxyresorufin 7-O-dealkylations. Incubations without the substrate, enzyme, or NADPH were used as blank reactions. Resorufin was used as a standard, and 3-(4-fluorophenyl)-7-hydroxycoumarin was used as the surrogate standards to calculate the amount of product formed. The linear phase of the reactions was used for calculations.
(§3) Enzyme kinetic parameters were analyzed using the nonlinear Michaelis–Menten equation v = Vmax × S/(Km + S), in which v is the rate for 7-hydroxylation of a coumarin derivative, S is its concentration, and Vmax value is the limiting rate of the reaction of 7-hydroxylation, which reached a half-maximal rate at a concentration of Km for the substrate.

Substrate in data set [2]: CCOc1ccc2ccc(=O)oc2c1
The description is as above. Particulars: other: recombinant CYP1A1, 100 mM Tris-HCl pH 7.4, 37 °C, 95% confidence interval in brackets. As for the experimental part:
as §1, §2, §3

Substrate in data set [3]: CCOc1ccc2nc3ccc(=O)cc-3oc2c1
The description is as above. Particulars: other: recombinant CYP1A1, 100 mM Tris-HCl pH 7.4, 37 °C, 95% confidence interval in brackets. As for the experimental part:
as §1, §2, §3

Substrate in data set [4]: COc1ccc2oc(=O)c(-c3ccc(OC(F)(F)F)cc3)cc2c1
Described as above. Particulars: other: recombinant CYP1A1, 100 mM Tris-HCl pH 7.4, 37 °C, 95% confidence interval in brackets. The procedure: as §1, §2, §3

Substrate in data set [5]: O=c1oc2ccc(O)cc2cc1-c1cccc(O)c1
The description is as above. The conditions noted are these: other: recombinant CYP1A1, 100 mM Tris-HCl pH 7.4, 37 °C, 95% confidence interval in brackets. As for the experimental part: as §1, §2, §3

Substrate in data set [6]: COc1ccc2oc(=O)c(-c3ccc(O)c(F)c3)cc2c1
The description is as above. Particulars: other: recombinant CYP1A1, 100 mM Tris-HCl pH 7.4, 37 °C, 95% confidence interval in brackets. As for the experimental part: as §1, §2, §3

Substrate in data set [7]: COc1ccc(-c2cc3cc(OC(C)=O)ccc3oc2=O)cc1
Described as above. Particulars: other: recombinant CYP1A1, 100 mM Tris-HCl pH 7.4, 37 °C, 95% confidence interval in brackets. As for the experimental part:
as §1, §2, §3

Substrate in data set [8]: COc1cccc(-c2cc3cc(OC)ccc3oc2=O)c1
Described as above. The conditions noted are these: other: recombinant CYP1A1, 100 mM Tris-HCl pH 7.4, 37 °C, 95% confidence interval in brackets. As for the experimental part: as §1, §2, §3

Substrate in data set [9]: COc1ccc2cc(-c3ccc(OC(F)(F)F)cc3)c(=O)oc2c1
Described as above. The conditions noted are these: other: recombinant CYP1A1, 100 mM Tris-HCl pH 7.4, 37 °C, 95% confidence interval in brackets. As for the experimental part:
as §1, §2, §3

Substrate in data set [10]: CC(=O)Oc1ccc(-c2cc3cc(Cl)ccc3oc2=O)cc1
Described as above. The conditions noted are these: other: recombinant CYP1A1, 100 mM Tris-HCl pH 7.4, 37 °C, 95% confidence interval in brackets. The procedure: as §1, §2, §3

Substrate in data set [11]: CCOc1ccc2nc3ccc(=O)cc-3oc2c1
The data set is described as follows: Michaelis–Menten kinetics of oxidation to fluorescent 7-hydroxy metabolite by recombinant CYP1A2. Particulars: other: recombinant CYP1A2, 100 mM Tris-HCl pH 7.4, 37 °C, 95% confidence interval in brackets. The procedure:
as §1, §2, §3

Substrate in data set [12]: COc1ccc2oc(=O)c(-c3ccc(OC(F)(F)F)cc3)cc2c1
The data set is described as above. Particulars: other: recombinant CYP1A2, 100 mM Tris-HCl pH 7.4, 37 °C, 95% confidence interval in brackets. As for the experimental part: as §1, §2, §3

Substrate in data set [13]: Cc1ccc2oc(=O)c(-c3ccc(F)cc3)cc2c1
The description is as above. Particulars: other: recombinant CYP1A2, 100 mM Tris-HCl pH 7.4, 37 °C, 95% confidence interval in brackets. As for the experimental part: as §1, §2, §3

Substrate in data set [14]: O=c1oc2ccc(O)cc2cc1-c1cccc(O)c1
The data set is described as above. The conditions noted are these: other: recombinant CYP1A2, 100 mM Tris-HCl pH 7.4, 37 °C, 95% confidence interval in brackets. The procedure: as §1, §2, §3

Substrate in data set [15]: COc1ccc2oc(=O)c(-c3ccc(O)c(F)c3)cc2c1
Described as above. The conditions noted are these: other: recombinant CYP1A2, 100 mM Tris-HCl pH 7.4, 37 °C, 95% confidence interval in brackets. The procedure: as §1, §2, §3

Substrate in data set [16]: COc1ccc(-c2cc3cc(OC(C)=O)ccc3oc2=O)cc1
Described as above. The conditions noted are these: other: recombinant CYP1A2, 100 mM Tris-HCl pH 7.4, 37 °C, 95% confidence interval in brackets. The procedure:
as §1, §2, §3

Substrate in data set [17]: COc1cccc(-c2cc3cc(OC)ccc3oc2=O)c1
The description is as above. The conditions noted are these: other: recombinant CYP1A2, 100 mM Tris-HCl pH 7.4, 37 °C, 95% confidence interval in brackets. As for the experimental part:
as §1, §2, §3

Substrate in data set [18]: O=c1oc2ccccc2cc1-c1cccc(O)c1
Described as above. Particulars: other: recombinant CYP1A2, 100 mM Tris-HCl pH 7.4, 37 °C, 95% confidence interval in brackets. The procedure:
as §1, §2, §3

Substrate in data set [19]: COc1ccc2cc(-c3ccc(OC(F)(F)F)cc3)c(=O)oc2c1
Described as above. Particulars: other: recombinant CYP1A2, 100 mM Tris-HCl pH 7.4, 37 °C, 95% confidence interval in brackets. The procedure: as §1, §2, §3

Substrate in data set [20]: CC(=O)Oc1ccc(-c2cc3cc(Cl)ccc3oc2=O)cc1
Described as above. Particulars: other: recombinant CYP1A2, 100 mM Tris-HCl pH 7.4, 37 °C, 95% confidence interval in brackets. As for the experimental part: as §1, §2, §3

Marks after values point to notes of the source that are not given here.

B1: human CYP1A1 (Homo sapiens) (protein)
chain: MLFPISMSATEFLLASVIFCLVFWVIRASRPQVPKGLKNPPGPWGWPLIGHMLTLGKNPHLALSRMSQQYGDVLQIRIGSTPVVVLSGLDTIRQALVRQGDDFKGRPDLYTFTLISNGQSMSFSPDSGPVWAARRRLAQNGLKSFSIASDPASSTSCYLEEHVSKEAEVLISTLQELMAGPGHFNPYRYVVVSVTNVICAICFGRRYDHNHQELLSLVNLNNNFGEVVGSGNPADFIPILRYLPNPSLNAFKDLNEKFYSFMQKMVKEHYKTFEKGHIRDITDSLIEHCQEKQLDENANVQLSDEKIINIVLDLFGAGFDTVTTAISWSLMYLVMNPRVQRKIQEELDTVIGRSRRPRLSDRSHLPYMEAFILETFRHSSFVPFTIPHSTTRDTSLKGFYIPKGRCVFVNQWQINHDQKLWVNPSEFLPERFLTPDGAIDKVLSEKVIIFGMGKRKCIGETIARWEVFLFLAILLQRVEFSVPLGVKVDMTPIYGLTMKHACCEHFQMQLRS
notes: purchased BD Biosciences Discovery Labware (Woburn, MA, USA); host or cells: baculovirus-insect cells
For B1, the Km in [1] was 0.74 (0.54–0.94) μM; in data set [2] it was 11.9 (0–25.1) μM; in [3] it was 0.054 (0.035–0.075) μM; in [4] it was 4.8 (2.6–6.9) μM; in [5] it was 2.11 (0.17–4.1) μM; in [6] it was 10.7 (2.6–18.7) ^b μM. The Km is on record as 1.04 (0.65–1.42) μM in data set [7], 0.96 (0.4–1.52) μM in data set [8], 9.7 (4.8–14.6) μM in data set [9] and 0.41 (0.26–0.55) μM in data set [10]. Besides, the kcat is reported as 1.35 (1.19–1.50) mol/(min·mol CYP) in data set [1]; 26.2 (14.5–38) mol/(min·mol CYP) in data set [2]; 10.3 (9.3–11.4) mol/(min·mol CYP) in data set [3]; 12.6 (10.6–14.6) mol/(min·mol CYP) in [4]; 4.0 (3.0–5.0) mol/(min·mol CYP) in [5]; 32 (18–46) mol/(min·mol CYP) in data set [6]. The kcat in data set [7] is listed as 7.5 (7–8.1) mol/(min·mol CYP); in data set [8] it was 24.2 (19.4–29) mol/(min·mol CYP); in [9] it was 4.2 (3.3–5.1) mol/(min·mol CYP); in [10], 6.5 (5.9–7.1) mol/(min·mol CYP).

B2: human CYP1A2 (Homo sapiens) (protein)
chain: MALSQSVPFSATELLLASAIFCLVFWVLKGLRPRVPKGLKSPPEPWGWPLLGHVLTLGKNPHLALSRMSQRYGDVLQIRIGSTPVLVLSRLDTIRQALVRQGDDFKGRPDLYTSTLITDGQSLTFSTDSGPVWAARRRLAQNALNTFSIASDPASSSSCYLEEHVSKEAKALISRLQELMAGPGHFDPYNQVVVSVANVIGAMCFGQHFPESSDEMLSLVKNTHEFVETASSGNPLDFFPILRYLPNPALQRFKAFNQRFLWFLQKTVQEHYQDFDKNSVRDITGALFKHSKKGPRASGNLIPQEKIVNLVNDIFGAGFDTVTTAISWSLMYLVTKPEIQRKIQKELDTVIGRERRPRLSDRPQLPYLEAFILETFRHSSFLPFTIPHSTTRDTTLNGFYIPKKCCVFVNQWQVNHDPELWEDPSEFRPERFLTADGTAINKPLSEKMMLFGMGKRRCIGEVLAKWEIFLFLAILLQQLEFSVPPGVKVDLTPIYGLTMKHARCEHVQARLRFSIN
notes: as for B1
For the protein B2, the Km in data set [11] is listed as 0.56 (0.44–0.68) μM; in [12] it was 0.96 (0.61–1.32) μM; in data set [13], 7.6 (0.59–14.6) μM; in data set [14], 2.4 (1.8–3.1) μM; in data set [15], 20.3 (0–53) μM; in [16], 2.2 (1.6–2.8) μM. Further, the Km in data set [17] is 0.27 (0.19–0.36) μM; in data set [18], 47 (8–86) μM; in data set [19], 7.9 (5.1–10.6) μM; in data set [20] it was 2 (1.2–2.7) μM. Further, the kcat in [11] was 3.2 (2.9–3.6) mol/(min·mol CYP); in data set [12], 4.4 (4.1–4.8) mol/(min·mol CYP); in data set [13], 1 (0.63–1.38) mol/(min·mol CYP); in [14] it was 29.8 (27.5–32.2) mol/(min·mol CYP); in data set [15], 6.0 (0–12.8) mol/(min·mol CYP); in data set [16], 8.7 (8–9.4) mol/(min·mol CYP). Moreover, the kcat in data set [17] was 8.2 (7.6–8.9) mol/(min·mol CYP); in [18] it was 0.4 (0.19–0.6) mol/(min·mol CYP); in data set [19], 9.1 (7.8–10.5) mol/(min·mol CYP); in data set [20], 1.2 (1.1–1.4) mol/(min·mol CYP).
